For 39 variants, self-cleavage results are on record in the RNAGym collection of RNA variant scans (doi:10.7554/elife.80360).

B1: CPEB3 Ribozyme (parent)
chain: GGGGGCCACAGCAGAAGCGUUCACGUCGCGGCCCCUGUCAGAUUCUGGUGAAUCUGCGAAUUCUGCUGU

In this series the parent is B1. The series can be described thus: self-cleavage, relative activity (ratio to wild type); higher = more cleavage; co-transcriptional.
Consider GGGGGCCACAGCAGAAGCGUUCACGUCGCGGCCCCCGUCAGAUUCUGGUGACUCUGCGAAUUCUGCUGU [U36C A52C], for which the self-cleavage stood at 0.997.

For GGGGGCCACAGCAGAAGCGUUCACGUCGCGGCCCCCGUCAGAUUCUGGUGAUUCUGCGAAUUCUGCUGU [U36C A52U], the self-cleavage turned out to be 0.915.

For GGGGGCCACAGCAGAAGCGUUCACGUCGCGGCCCCAGUCAGAUUCUGGUGAAUCUCCGAAUUCUGCUGU [U36A G56C], the self-cleavage is 0.201.

For GGGGGCCACAGCAGAAGCGUUCACGUCGCGGCCCCAGUCAGAUUCUGGUGAAUCUUCGAAUUCUGCUGU [U36A G56U], the self-cleavage came to 0.177.

Consider GGGGGCCACAGCAGAAGCGUUCACGUCGCGGCCCCCGUCAGAUUCUGGUGUAUCUGCGAAUUCUGCUGU [U36C A51U], for which the self-cleavage was 0.879.

On to GGGGGCCACAGCAGAAGCGUUCACGUCGCGGCCCCCGUCAGAUUCUGGUGCAUCUGCGAAUUCUGCUGU [U36C A51C], for which the self-cleavage was found to be 0.88.

For the variant GGGGGCCACAGCAGAAGCGUUCACGUCGCGGCCCCAGUCAGAUUCUGGUGAAACUGCGAAUUCUGCUGU [U36A U53A], the self-cleavage worked out at 0.282.

Turning to GGGGGCCACAGCAGAAGCGUUCACGUCGCGGCCCCAGUCAGAUUCUGGUGAAGCUGCGAAUUCUGCUGU [U36A U53G], the self-cleavage came out at 0.286.

GGGGGCCACAGCAGAAGCGUUCACGUCGCGGCCCCAGUCAGAUUCUGGUGAAUCUGGGAAUUCUGCUGU [U36A C57G]: the self-cleavage was found to be 0.231.

On to GGGGGCCACAGCAGAAGCGUUCACGUCGCGGCCCCAGUCAGAUUCUGGUGAAUCUGUGAAUUCUGCUGU [U36A C57U], for which the self-cleavage is 0.233.

As for GGGGGCCACAGCAGAAGCGUUCACGUCGCGGCCCCCGUCAGAUUCUGGUGAAUCUGCGAAUUGUGCUGU [U36C C63G], the self-cleavage stood at 0.548.

Regarding GGGGGCCACAGCAGAAGCGUUCACGUCGCGGCCCCCGUCAGAUUCUGGUGAAUCUGCGAAUUAUGCUGU [U36C C63A], the self-cleavage is 0.587.

Take GGGGGCCACAGCAGAAGCGUUCACGUCGCGGCCCCCCUCAGAUUCUGGUGAAUCUGCGAAUUCUGCUGU [U36C G37C]: the self-cleavage was determined as 0.237.

Consider GGGGGCCACAGCAGAAGCGUUCACGUCGCGGCCCCCUUCAGAUUCUGGUGAAUCUGCGAAUUCUGCUGU [U36C G37U], for which the self-cleavage came to 0.287.

Turning to GGGGGCCACAGCAGAAGCGUUCACGUCGCGGCCCCCGUCCGAUUCUGGUGAAUCUGCGAAUUCUGCUGU [U36C A40C], the self-cleavage worked out at 0.506.

For GGGGGCCACAGCAGAAGCGUUCACGUCGCGGCCCCCGUCGGAUUCUGGUGAAUCUGCGAAUUCUGCUGU [U36C A40G], the self-cleavage is 0.858.

For the variant GGGGGCCACAGCAGAAGCGUUCACGUCGCGGCCCCCGUCUGAUUCUGGUGAAUCUGCGAAUUCUGCUGU [U36C A40U], the self-cleavage came out at 0.64.

As for GGGGGCCACAGCAGAAGCGUUCACGUCGCGGCCCCAGUCAGAUUCUGGUGAAUCUGCGAAUUCUGCUCU [U36A G68C], the self-cleavage turned out to be 0.227.

Regarding GGGGGCCACAGCAGAAGCGUUCACGUCGCGGCCCCAGUCAGAUUCUGGUGAAUCUGCGAAUUCUGCUAU [U36A G68A], the self-cleavage turned out to be 0.317.

Take GGGGGCCACAGCAGAAGCGUUCACGUCGCGGCCCCAGUCAGAUUCUGGUGAAUCUGCCAAUUCUGCUGU [U36A G58C]: the self-cleavage worked out at 0.226.

Regarding GGGGGCCACAGCAGAAGCGUUCACGUCGCGGCCCCAGUCAGAUUCUGGUGAAUCUGCUAAUUCUGCUGU [U36A G58U], the self-cleavage came out at 0.253.

Turning to GGGGGCCACAGCAGAAGCGUUCACGUCGCGGCCCCAGUCAGAUUCUAGUGAAUCUGCGAAUUCUGCUGU [U36A G47A], the self-cleavage is 0.295.

Regarding GGGGGCCACAGCAGAAGCGUUCACGUCGCGGCCCCAGUCAGAUUCUUGUGAAUCUGCGAAUUCUGCUGU [U36A G47U], the self-cleavage amounted to 0.321.

On to GGGGGCCACAGCAGAAGCGUUCACGUCGCGGCCCCAGUCAGAUUCUCGUGAAUCUGCGAAUUCUGCUGU [U36A G47C], for which the self-cleavage was determined as 0.269.

As to GGGGGCCACAGCAGAAGCGUUCACGUCGCGGCCCCAGUCAGAUCCUGGUGAAUCUGCGAAUUCUGCUGU [U36A U44C], the self-cleavage was found to be 0.295.

For the variant GGGGGCCACAGCAGAAGCGUUCACGUCGCGGCCCCAGACAGAUUCUGGUGAAUCUGCGAAUUCUGCUGU [U36A U38A], the self-cleavage came to 0.25.

Regarding GGGGGCCACAGCAGAAGCGUUCACGUCGCGGCCCCAGGCAGAUUCUGGUGAAUCUGCGAAUUCUGCUGU [U36A U38G], the self-cleavage amounted to 0.185.

In the case of GGGGGCCACAGCAGAAGCGUUCACGUCGCGGCCCCAGCCAGAUUCUGGUGAAUCUGCGAAUUCUGCUGU [U36A U38C], the self-cleavage stood at 0.216.

For the variant GGGGGCCACAGCAGAAGCGUUCACGUCGCGGCCCCCGUCAGCUUCUGGUGAAUCUGCGAAUUCUGCUGU [U36C A42C], the self-cleavage is 0.732.

Consider GGGGGCCACAGCAGAAGCGUUCACGUCGCGGCCCCCGUCAGUUUCUGGUGAAUCUGCGAAUUCUGCUGU [U36C A42U], for which the self-cleavage was found to be 0.869.

Regarding GGGGGCCACAGCAGAAGCGUUCACGUCGCGGCCCCCGUCAGGUUCUGGUGAAUCUGCGAAUUCUGCUGU [U36C A42G], the self-cleavage turned out to be 0.77.

As to GGGGGCCACAGCAGAAGCGUUCACGUCGCGGCCCCCGUGAGAUUCUGGUGAAUCUGCGAAUUCUGCUGU [U36C C39G], the self-cleavage is 0.847.

With GGGGGCCACAGCAGAAGCGUUCACGUCGCGGCCCCAGUCAGAUUCUGCUGAAUCUGCGAAUUCUGCUGU [U36A G48C], the self-cleavage amounted to 0.291.

For GGGGGCCACAGCAGAAGCGUUCACGUCGCGGCCCCAGUCAGAUUCUGUUGAAUCUGCGAAUUCUGCUGU [U36A G48U], the self-cleavage was 0.311.

GGGGGCCACAGCAGAAGCGUUCACGUCGCGGCCCCAGUCAGAAUCUGGUGAAUCUGCGAAUUCUGCUGU [U36A U43A]: the self-cleavage worked out at 0.249.

For the variant GGGGGCCACAGCAGAAGCGUUCACGUCGCGGCCCCAGUCAGAGUCUGGUGAAUCUGCGAAUUCUGCUGU [U36A U43G], the self-cleavage is 0.214.

Turning to GGGGGCCACAGCAGAAGCGUUCACGUCGCGGCCCCCGUCAGAUUCUGGUGAAUCUGCGAUUUCUGCUGU [U36C A60U], the self-cleavage amounted to 0.376.

Regarding GGGGGCCACAGCAGAAGCGUUCACGUCGCGGCCCCCGUCAGAUUCUGGUGAAUCUGCGAGUUCUGCUGU [U36C A60G], the self-cleavage came to 0.636.

Consider GGGGGCCACAGCAGAAGCGUUCACGUCGCGGCCCCCGUCAGAUUCUGGUGAAUCUGCGACUUCUGCUGU [U36C A60C], for which the self-cleavage amounted to 0.268.
